The subject of data set [1] is CC[C@H](C)[C@H](N)C(=O)N[C@@H](Cc1c[nH]c2ccccc12)C(=O)NCC(=O)N[C@H](C(=O)NCC(=O)N[C@@H](CS)C(=O)N[C@@H](CC(N)=O)C(=O)N1CCC[C@H]1C(=O)N[C@@H](Cc1c[nH]c2ccccc12)C(=O)N[C@H](C(=O)N[C@@H](C)C(=O)N[C@@H](CCC(=O)O)C(=O)N[C@@H](Cc1c[nH]cn1)C(=O)N[C@H](C(=O)N[C@@H](CC(=O)O)C(=O)N[C@@H](CCC(N)=O)C(=O)N[C@H](C(=O)N[C@@H](CC(C)C)C(=O)N[C@@H](C)C(=O)N[C@@H](CO)C(=O)NCC(=O)N[C@@H](CC(N)=O)C(=O)N[C@@H](CC(=O)O)C(=O)N[C@H](C(=O)N[C@@H](CS)C(=O)O)[C@@H](C)CC)[C@@H](C)O)C(C)C)[C@@H](C)O)[C@@H](C)CC. Nature of the data set: GmPOPB kinetic assays (LC-MS). The data set is classed as biochemical, Galerina marginata. The conditions noted are these: other: room temperature; pH 8.0. The method, then: (§1) Comparison between distinct GmPOPB substrates was performed in 50 mM Tris pH 8.0, 50 mM NaCl, 10 mM DTT with varying concentrations of substrates at room temperature. All reactions were performed in duplicates. Reactions were started by adding GmPOPB (50 nM for GmAMA1_C6S, 1 μM for the 13mer and 14mer, and 20 nM for other substrates) to the assay mixture containing buffer and peptide. Reactions were quenched at several time points by adding 50 μL reaction mixture to 20 μL 6% TFA. Reactants were separated from products for quantification by injecting 50 μL of each quenched time point mix onto a ZORBAX SB-C18, 5 μm, 9.4×50 mm (Agilent) column connected to an Agilent LC-MS (G6130B Single Quad, Agilent Technologies). Reactants were separated from products using a gradient from H2O containing 0.1% TFA or 0.1% formic acid and 5% acetonitrile to 50% acetonitrile, at 1.5 ml/min for 8 min. Peaks with ultra violet (UV) absorbance at 220 and 280 nm were integrated, the area of peaks corresponding to reactant and products was used to calculate the percentage of product formed after a correction for differences in the extinction coefficient of each peptide was applied (ε280-25mer=11,000M-1 cm-1, ε220-25mer=46,000M-1 cm-1, ε280-cyclic=5500M-1 cm-1, ε220-cyclic=34,000M-1 cm-1, and ε280-tail=5500M-1 cm-1). The sum of product+substrate was assumed equal to the total initial amount of substrate, product converted from % to concentration. This value was divided by concentration of enzyme present to yield v/Et (min-1). When enzyme mutants and peptides containing alanine in the core region were tested for activity, higher concentrations 5 μM enzyme and 100 μM substrate were incubated for 1 and 18 h at room temperature. For progress curves with the 35mer substrate, measurements were triplicate and quantification relied on ion counts from mass spectrometry. […] Authentic macrocyclic peptide was quantified by UV absorbance. Data showing products formed after 1 and 16 h with truncated peptides were performed twice. […] Kinetic data were fitted to a Michaelis-Menten equation using GraphPad Prism, and values reported are average and standard error of the mean.

A further data set has as its target T1, presegetalin B1.
T1 chain: GVAWAFQAKDVENASAPV

Data set [2] has as its system 25mer and 35mer substrates. Nature of the data set: Activity of GmPOPB mutants with 25mer and 35mer substrates. Type of data set: biochemical, Galerina marginata. The conditions noted are these: 5 μM GmPOPB, 24 h (16 h elsewhere in the source). The method, then:
as §1, with “Reactions were started by adding GmPOPB (50 nM for GmAMA1_C6S, 1 μM for the 13mer and 14mer, and 20 nM for other substrates) to the assay mixture containing buffer and peptide.” left out, “When enzyme mutants and peptides containing alanine in the core region were tested for activity, higher concentrations 5 μM enzyme and 100 μM substrate were incubated for 1 and 18 h at room temperature.” left out, “mean. […]” for “mean.”
To study other residues involved in hydrolysis and macrocyclisation, additional mutants H698N, R663A, R663Q, R663K, and W695Δ (deletion) were generated. […] H698N was insoluble and not evaluated. […]

One may read the Km as the substrate concentration at which the rate is half of its maximum. One may read the kcat as the number of substrate molecules converted per active site and unit of time at saturation.

Consider GmPOPB (Galerina marginata CBS 339.88), for which, in data set [1], the Km amounted to 50 µM and the kcat worked out at 0.3 s⁻¹.

B1: PCY1 (Saponaria vaccaria), wild type (protein)
chain: MATSGFSKPLHYPPVRRDETVVDDYFGVKVADPYRWLEDPNSEETKEFVDNQEKLANSVLEECELIDKFKQKIIDFVNFPRCGVPFRRANKYFHFYNSGLQAQNVFQMQDDLDGKPEVLYDPNLREGGRSGLSLYSVSEDAKYFAFGIHSGLTEWVTIKILKTEDRSYLPDTLEWVKFSPAIWTHDNKGFFYCPYPPLKEGEDHMTRSAVNQEARYHFLGTDQSEDILLWRDLENPAHHLKCQITDDGKYFLLYILDGCDDANKVYCLDLTKLPNGLESFRGREDSAPFMKLIDSFDASYTAIANDGSVFTFQTNKDAPRKKLVRVDLNNPSVWTDLVPESKKDLLESAHAVNENQLILRYLSDVKHVLEIRDLESGALQHRLPIDIGSVDGITARRRDSVVFFKFTSILTPGIVYQCDLKNDPTQLKIFRESVVPDFDRSEFEVKQVFVPSKDGTKIPIFIAARKGISLDGSHPCEMHGYGGFGINMMPTFSASRIVFLKHLGGVFCLANIRGGGEYGEEWHKAGFRDKKQNVFDDFISAAEYLISSGYTKARRVAIEGGSNGGLLVAACINQRPDLFGCAEANCGVMDMLRFHKFTLGYLWTGDYGCSDKEEEFKWLIKYSPIHNVRRPWEQPGNEETQYPATMILTADHDDRVVPLHSFKLLATMQHVLCTSLEDSPQKNPIIARIQRKAAHYGRATMTQIAEVADRYGFMAKALEAPWID
On to B1, for which, in the data set with presegetalin B1, the Km (column head printed as 'Kin (µM)'), single injection kinetic ITC came out at 0.25 µM and the Km (column head printed as 'Kin (µM)'), steady-state kinetics, LC/MS (UV280 nM) turned out to be 0.45 µM.

B2: H698A: GmPOPB catalytic triad mutant (protein, UniProt H2E7Q8 1-730, looked up, variant H698A)
Dual function …: MSSVTWAPGNYPSTRRSDHVDTYQSASKGEVPVPDPYQWLEESTDEVDKWTTAQADLAQSYLDQNADIQKLAEKFRASRNYAKFSAPTLLDDGHWYWFYNRGLQSQSVLYRSKEPALPDFSKGDDNVGDVFFDPNVLAADGSAGMVLCKFSPDGKFFAYAVSHLGGDYSTIYVRSTSSPLSQASVAQGVDGRLSDEVKWFKFSTIIWTKDSKGFLYQRYPARERHEGTRSDRNAMMCYHKVGTTQEEDIIVYQDNEHPEWIYGADTSEDGKYLYLYQFKDTSKKNLLWVAELDEDGVKSGIHWRKVVNEYAADYNIITNHGSLVYIKTNLNAPQYKVITIDLSKDEPEIRDFIPEEKDAKLAQVNCANEEYFVAIYKRNVKDEIYLYSKAGVQLTRLAPDFVGAASIANRQKQTHFFLTLSGFNTPGTIARYDFTAPETQRFSILRTTKVNELDPDDFESTQVWYESKDGTKIPMFIVRHKSTKFDGTAAAIQYGYGGFATSADPFFSPIILTFLQTYGAIFAVPSIRGGGEFGEEWHKGGRRETKVNTFDDFIAAAQFLVKNKYAAPGKVAINGASNGGLLVMGSIVRAPEGTFGAAVPEGGVADLLKFHKFTGGQAWISEYGNPSIPEEFDYIYPLSPVHNVRTDKVMPATLITVNIGDGRVVPMHSFKFIATLQHNVPQNPHPLLIKIDKSWLGAGMGKPTDKNVKDAADKWGFIARALGLELKTVE
For the molecule B2, the “activity of GmPOPB mutant (in words)” value in data set [2] was “inactive”.

The values are drawn from US20200291444A1, “Macrocyclisation Tags” (Oxford University Innovation LTD, priority 2017, published 2020).
